Results as given in US9890400B2, “Method of production of 2,4-dihydroxybutyric acid” (ADISSEO FRANCE S.A.S., priority 2012, dated 2018).

Experiment: Test for malate semialdehyde reductase (DHB dehydrogenase) activity
Type: biochemical
Settings: for Activity on malate semialdehyde (cofactor NADPH) / Activity on malate semialdehyde (cofactor NADH): 10 mM malate semialdehyde, 30° C., average of at least two experiments
Protocol: Test for Malate Semialdehyde Reductase Activity: (L)-Malate semialdehyde+NAD(P)H→(L)-2,4-dihydroxybutyric acid+NAD(P) Reaction scheme:
The assay mixture contained 200 mM Hepes (pH 7.5), 50 mM KCl, 5 mM MgCl2, 0.24 mM NADH or NADPH, and appropriate amounts of purified enzyme or cell extract. Reactions were started by adding 10 mM (L)-malate semialdehyde (malate semialdehyde was prepared freshly for each test, see Example 3). Enzymatic assays were carried out at 30° C. in 96-well flat bottomed microtiter plates in a final volume of 250 μL. The reactions were followed by the characteristic absorption of NAD(P)H at 340 nm (εNADPH=6.22 mM^−1 cm^−1) in a microplate reader (BioRad 680XR).

B1: YPR1: methylbutyraldehyde reductase from Saccharomyces cerevisiae, SEQ ID No. 14 (protein, listed as Saccharomyces cerevisiae)
chain: MPATLKNSSATLKLNTGASIPVLGFGTWRSVDNNGYHSVIAALKAGYRHIDAAAIYLNEEEVGRAIKDSGVPREEIFITTKLWGTEQRDPEAALNKSLKRLGLDYVDLYLMHWPVPLKTDRVTDGNVLCIPTLEDGTVDIDTKEWNFIKTWELMQELPKTGKTKAVGVSNFSINNIKELLESPNNKVVPATNQIEIHPLLPQDELIAFCKEKGIVVEAYSPFGSANAPLLKEQAIIDMAKKHGVEPAQLIISWSIQRGYVVLAKSVNPERIVSNFKIFTLPEDDFKTISNLSKVHGTKRVVDMKWGSFPIFQ
Activity on malate semialdehyde (cofactor NADPH): 0.19 μmol/(min * mg_prot)

B2: H39R N43H: M. sedula succinic semialdehyde reductase double mutant H39R N43H, SEQ ID No. 36 (protein, listed as Metallosphaera sedula)
chain: MKAAVLHTYKEPLSIEDVNISQPKAGEVKIKVKATGLCRSDVHVFEGKTPVPPPVVAGHEISGIVEEVGPGVTRVKPGDRVISAFIHPCGKCGNCVAGKENLCETFSQVRLKGVMPDGTSRLSKDGKEIRTFLGGGFAEYAIVGENALTRVPEDMDLEKVAVLGCAGLTGYGAISSSKIEPGDTVAVIGVGGVGLSTIQLLRASGAGRIIAVGTKKWKLDRAMELGATDVVNSKEIDPVKAIKEITGGGPQVVIEAGGNEDTIHMALDSVRIGGKVVLVGLPPATAMIPIRVASIVRGGIEVVGNYGGRPRVDMPKLLELVRQGRYDPSRLVTGRFRLEEINEAVKMLEEGEAIRSLIIP
affinity for malate semialdehyde compared to the wild type enzyme (in words): improved affinity

B3: Ms-SSR: succinic semialdehyde reductase from Metallosphaera sedula, SEQ ID No. 16 (protein, listed as Metallosphaera sedula)
chain: MKAAVLHTYKEPLSIEDVNISQPKAGEVKIKVKATGLCHSDVNVFEGKTPVPPPVVAGHEISGIVEEVGPGVTRVKPGDRVISAFIHPCGKCGNCVAGKENLCETFSQVRLKGVMPDGTSRLSKDGKEIRTFLGGGFAEYAIVGENALTRVPEDMDLEKVAVLGCAGLTGYGAISSSKIEPGDTVAVIGVGGVGLSTIQLLRASGAGRIIAVGTKKWKLDRAMELGATDVVNSKEIDPVKAIKEITGGGPQVVIEAGGNEDTIHMALDSVRIGGKVVLVGLPPATAMIPIRVASIVRGGIEVVGNYGGRPRVDMPKLLELVRQGRYDPSRLVTGRFRLEEINEAVKMLEEGEAIRSLIIP
Activity on malate semialdehyde (cofactor NADH): 4.9 μmol/(min * mg_prot)
Activity on malate semialdehyde (cofactor NADPH): 4.9 μmol/(min * mg_prot)

B4: YqhD: alcohol dehydrogenase of E. coli, SEQ ID No. 185 (protein, listed as Escherichia coli)
chain: MNNFNLHTPTRILFGKGAIAGLREQIPHDARVLITYGGGSVKKTGVLDQVLDALKGMDVLEFGGIEPNPAYETLMNAVKLVREQKVTFLLAVGGGSVLDGTKFIAAAANYPENIDPWHILQTGGKEIKSAIPMGCVLTLPATGSESNAGAVISRKTTGDKQAFHSAHVQPVFAVLDPVYTYTLPPRQVANGVVDAFVHTVEQYVTKPVDAKIQDRFAEGILLTLIEDGPKALKEPENYDVRANVMWAATQALNGLIGAGVPQDWATHMLGHELTAMHGLDHAQTLAIVLPALWNEKRDTKRAKLLQYAERVWNITEGSDDERIDAAIAATRNFFEQLGVPTHLSDYGLDGSSIPALLKKLEEHGMTQLGENHDITLDVSRRIYEAAR
Activity on malate semialdehyde (cofactor NADPH): 1.2 μmol/(min * mg_prot)

B5: 4hbdh: 4-hydroxybutyrate dehydrogenase of P. gingivalis, SEQ ID No. 187 (protein, listed as Porphyromonas gingivalis)
chain: MQLFKLKSVTHHFDTFAEFAKEFCLGERDLVITNEFIYEPYMKACQLPCHFVMQEKYGQGEPSDEMMNNILADIRNIQFDRVIGIGGGTVIDISKLFVLKGLNDVLDAFDRKIPLIKEKELIIVPTTCGTGSEVTNISIAEIKSRHTKMGLADDAIVADHAIIIPELLKSLPFHFYACSAIDALIHAIESYVSPKASPYSRLFSEAAWDIILEVFKKIAEHGPEYRFEKLGEMIMASNYAGIAFGNAGVGAVHALSYPLGGNYHVPHGEANYQFFTEVFKVYQKKNPFGYIVELNWKLSKILNCQPEYVYPKLDELLGCLLTKKPLHEYGMKDEEVRGFAESVLKTQQRLLANNYVELTVDEIEGIYRRLY
Activity on malate semialdehyde (cofactor NADH): 33 μmol/(min * mg_prot)
